Data published in paper PMC4649164.

Target: HIV gp120 (HIV-1)
Test: SPR

## Griffithsin (from UniProt P84801 1-121) (natural protein)
  Kd: 0.798 nM
  koff: 0.00175 s⁻¹
  kon: 2.19e+06 M⁻¹ s⁻¹
